Laboratory results as given in IntAct's records for PubMed 23217712.

Tests used:
clg1_yeast CLG1 = clg1_yeast CLG1 (UniProt P35190)
pcl2_yeast PCL2 = pcl2_yeast PCL2 (UniProt P25693)
cg13_yeast CLN3 = cg13_yeast CLN3 (UniProt P13365)
Chain of cg13_yeast CLN3 (P13365 whole entry): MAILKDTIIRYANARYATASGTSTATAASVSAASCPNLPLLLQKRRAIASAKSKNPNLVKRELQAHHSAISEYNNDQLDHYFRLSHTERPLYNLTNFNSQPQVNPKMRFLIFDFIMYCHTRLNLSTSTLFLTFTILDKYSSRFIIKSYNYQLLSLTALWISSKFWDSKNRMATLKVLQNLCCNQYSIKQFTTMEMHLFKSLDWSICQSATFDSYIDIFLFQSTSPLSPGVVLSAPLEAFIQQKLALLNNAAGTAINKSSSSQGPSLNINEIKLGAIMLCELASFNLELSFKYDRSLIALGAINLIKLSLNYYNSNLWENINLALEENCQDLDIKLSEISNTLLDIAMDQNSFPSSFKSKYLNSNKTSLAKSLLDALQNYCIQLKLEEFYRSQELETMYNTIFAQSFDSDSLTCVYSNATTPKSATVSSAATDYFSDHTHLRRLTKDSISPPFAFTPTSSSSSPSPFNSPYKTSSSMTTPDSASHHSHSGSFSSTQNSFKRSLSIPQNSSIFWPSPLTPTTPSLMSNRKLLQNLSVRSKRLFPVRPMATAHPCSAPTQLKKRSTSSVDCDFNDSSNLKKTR

Chain of clg1_yeast CLG1 (P35190 whole entry): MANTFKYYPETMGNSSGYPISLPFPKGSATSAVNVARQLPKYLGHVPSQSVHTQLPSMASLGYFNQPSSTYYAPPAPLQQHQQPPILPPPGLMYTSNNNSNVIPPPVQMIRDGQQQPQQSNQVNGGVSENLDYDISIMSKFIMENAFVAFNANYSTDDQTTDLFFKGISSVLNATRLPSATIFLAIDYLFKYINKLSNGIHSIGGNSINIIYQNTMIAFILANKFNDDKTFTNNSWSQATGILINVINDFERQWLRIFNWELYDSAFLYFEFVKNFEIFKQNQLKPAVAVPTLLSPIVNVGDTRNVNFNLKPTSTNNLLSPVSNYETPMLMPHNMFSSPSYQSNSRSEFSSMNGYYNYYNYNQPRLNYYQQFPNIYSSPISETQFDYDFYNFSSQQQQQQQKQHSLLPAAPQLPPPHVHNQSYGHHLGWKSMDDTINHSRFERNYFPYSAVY
Chain of pcl2_yeast PCL2 (P25693 whole entry): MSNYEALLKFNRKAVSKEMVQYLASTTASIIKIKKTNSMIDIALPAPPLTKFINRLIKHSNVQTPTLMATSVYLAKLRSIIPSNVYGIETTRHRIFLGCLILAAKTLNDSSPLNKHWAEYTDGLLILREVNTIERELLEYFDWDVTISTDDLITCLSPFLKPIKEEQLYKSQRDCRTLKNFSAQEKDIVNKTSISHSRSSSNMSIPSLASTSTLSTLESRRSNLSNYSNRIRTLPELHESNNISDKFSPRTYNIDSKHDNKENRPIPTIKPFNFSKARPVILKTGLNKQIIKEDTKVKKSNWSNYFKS

Substance | effect of a mutation on the interaction (clg1_yeast CLG1) | effect of a mutation on the interaction (pcl2_yeast PCL2) | effect of a mutation on the interaction (cg13_yeast CLN3)
Heat shock protein SSA1 (Saccharomyces cerevisiae), P10591 T36E | decreasing interaction strength | decreasing interaction strength | –
Heat shock protein SSA1 (Saccharomyces cerevisiae), P10591 T36A | increasing interaction strength | increasing interaction strength | disrupting interaction strength
